Experimental data as given in the DeepSol protein solubility set.

Assay: soluble on expression in E. coli; label from the status in PepcDB or PDB records

| Sequence | soluble on expression in E. coli |
| --- | --- |
| AEQDMYLLRQSFGKHKTVSAGVPWFSTLFGRDSLITASQTLMLNSQIAKETLILLAKYQGKIDDEWREEEPGKILHELRLGEMARCQEIPHTPYYGTVDATPLWLMLYAEHYAWTHDQELLELLWPNALAAMDWIDRNTKQTSYLSYFRKSKRGLANQGWKDSGDCIVNHKGELANGPIALCEVQAYVYAAKTRLAEIARMKKRLDLADRWLEEARSLKVRFNRDFWVEDQDFCALALDGDGKPVDSITSNPGHCLHLGLFTHERAYSVAERLRAPDMFNGWGIRTLSSLSPAYNPMGYHIGSVWPHDNALIAMGLRSLGLIDQALELFQGLFDMTSQQPYERPPELFCGYERNGDNAPVQYPVACTPQAWATGSIFQ | not soluble |
| MGSDKIHHHHHHMGSYPDGKRIFVKMNTSPILPGLAREQIAPQLLWSRRLADGRDMCAQEWLTGKILTPYDMNRKQIVNILTRLHRSRPLMTQLSRLGYAMETPVDLLQSWQETAPDALRKNHFISEVMADLRQTIPGFREDHATIVHGDVRHSNWIETDSGLIYLVDWDSVRLTDRMFDVAHMLCHYISEHQWKEWLTYYGYKYNQTVLSKLYWYGQLSYLSQISKYYMNQDLENVNREIHGLRHFRDKYGKRR | not soluble |
| MSLTITDWASTVNLNYDMSNKPVIAHVWKEQNANWLYGGWVCRSDRDENEGACDETKLPPGMLYGVTKIRLRFREQISHAETTLILDGQSGGFCLSTKISGGSVCKYLMQTCLSTFLQKSLRRYQKLAYGRLRWPWMEGHHHHHH | not soluble |
| MQQVPDKIYVSRSRLKSNRRRLINETDVERLFSRNGFQIIHPQELTIKEQINLFRHAQVIAGPLGSAMYNCVFQTKPTKKLLLTYEKFIKMSDLLINTSTNGLLYYFAGTEHKQNKSPSNTEWSINLNQLEHHHHHH | not soluble |
| MSLAEGYQSEADLERELIDDLRRQGYEFLPAIKTPEAMLANVRVQLQALNDVQFSDGEWARFVETWLDKPSDGIVEKTRKIHDDYIHDFVFDDGRIQNIHLVDKKTLVRNKVQVIRQFVTTPALCATPPREGNFSGGEQLWDQFPSFGGVPVGRGGYNRYDVTILVNGLPLVQVELKRRGVAIREAFNQVHRYSKESFNSAHSLFKYLQLFVISNGTDTRYFANTTRRDKNSFDFTMHWAKADNTPIRDLKDFAATFFQKHTLLSVLLHYSVFDVSNTLLVMRPYQIAATERILWKIKSSHQAKTWSTPEGGGYIWHTTGSGKTLTSFKAARLGTELDFIDKVFFVVDRKDLDYQTMKEYQRFSPDSVNGSDSTAGLKRNLEKDDNRIIVTTIQKLNNLMKSEPDLPIYHKQVVFIFDECHRSQFGEAQKNLRKKFKRYLQFGFTGTPIFPENALGAETTASVFGRELHSYVITDAIRDEKVLKFKVDYNDVRPRFKAIETERDEKKLSAAENRQALLHPERIREITQYILTHYRQKTHRLQPGAKGFNALFAVSSVEAAKLYYEAFKTQQKDSAKPLKVATIFSYAANEAQDAVGDIADEGFEVSALNSSAKEFLNAAIADYNALFKTNFSVDSQGFQNYYRDLAKRVKGTDDSGKRLPADEQVDLLIVVGMFLTGFDAPTLNTLFVDKNLRYHGLLQAYSRTNRIFDATKTFGNIVTFRDLEQATIDAITLFGDKNTRNVVLEKSYREYMEGYTDALTGQARRGFVEVVQELQARFPDPAALEKEADKKAFVRLFGEYLRAENVLQNFDEFAALKALQSVNTGDPAAVEAFKAQHYLSDEDLAALQAIKLPPERTMQDYRSTYNDIRDWLRREQAGVEKEKSTIDWDDVVFEVDLLKSQEINLDYILELIFERNKETRSKAELVEEVRRVIRASLGHRAKESLVVDFINQTDLEQLAEGHHHHHH | soluble |
| MKKESQVIFDKNVIEFVTVAAEFCAFLERAESMKRSTFVDTTLKILPLLYLKASMLPKCEMIGDESPETYVTEEIYEVLRINLASILAEKDDYLEVFLPDMAYSDEPIKKNISEDLADIYQDIKDFIFVFQLGLNETMNDSLAICQENFGLLWGQKLVNTMRALHDVKYSPKARLEHHHHHH | soluble |
| ELDWFARRGLKEPNLAELLDLVALGSVADVVPLDANNRILVHQGLARIRAGRARPGLRALLEVAGRPPVRITSTDLGFILGPRLNAAGRLDDMSLGIECLLCDDEALARDMAVQLDQLNQDRKAIEQGMQREALAQLKELSLEQLPFGLCLFDADWHQGVIGILASRLKERYHRPTIAFADAGDGSLKGSARSIPGFHIRDALDAVAARHPGLISKFGGHAMAAGLSLPQENFGAFSAAFDAEVRRQLAEEDLAGRLLSDGQLSIQEFHLELARALRQAGPWGQHFPEPMFHGVFQLVQQRIVGERHLKLVLKSECGSLQLDGIAFNIDREQWPNPTVRWAELAYKLDVNEFRGQESVQL | not soluble |
| LLTPQYISEAKIYVLSKETTLTSLADLQMGTQLTQDYKELIGSRPVMQEVINTLNLDITYRQLAEKLKLENPKDTRILYLTVTDPNPYMAKAIVDEIANAASDYIGEIMEMTPPKLIEDGMVATVQTSPNVKKN | not soluble |
| SYDSPDYTDESCTFKISLRNFRSILSWELKNHSIVPTHYTLLYTIMSKPEDLKVVKNCANTTRSFCDLTDEWRSTHEAYVTVLEGFSGNTTLFSCSHNFWLAIDMSFEPPEFEIVGFTNHINVMVKFPSIVEEELQFDLSLVIEEQSEGIVKKHKPEIKGNMSGNFTYIIDKLIPNTNYCVSVYLEHSDEQAVIKSPLKCTLLPPGQESEFS | soluble |
| MGSSHHHHHHSSGLVPRGSHMASKNVSIIGSPLAAGQPLGGVQLACDDLRKLGLHNVIDVLGWKYEDIGNIDNGDNEMKQEKKTNNYINNNDNNNDNNNDNNNDNNNNCYIPNGVIKEKKHDLSNNKMNGYVNHNFYGNYEENNVISTNDKYKNNCYYDNIRNIKEIGIFSKNLFDTMSNELRKKNFVLNIGGDHGVAFSSILSSLQMYQNLRVIWIDAHGDINIPETSPSGNYHGMTLAHTLGLFKKKVPYFEWSENLTYLKPENTAIIGIRDIDAYEKIILKKCNINYYTIFDIEKNGIYNTICTALEKIDPNSNCPIHISLDIDSVDNVFAPGTGTVAKGGLNYREINLLMKILAETKRVVSMDLVEYNPSLDEVDKKVHGDSLPILDNATKTGKLCLELIARVLGYDIV | soluble |
| MELYLIRHGIAEAQKTGIKDEERELTQEGKQKTEKVAYRLVKLGRQFDLIVTSPLIRARQTAEILLASGLSCQLEESNHLAPNGNIFNWLDYWLKPKNFPENAQIAIVGHEPCLSNWTEILLWGEAKDSLVLKKAGMIGLKLPEIGSPVGRSQMFWLTPPRYLLLEHHHHHH | soluble |
| MSLESSDVPRELIESIKDVIGRKIKISVKKKVKLEVKGDKVENKVLVLTSCRAFLVTARIPTKLELTFSYLEIHGVVCSKSAQMIVETEKCSISMKMASPEDVSEVLAHIGTCLRKIFPGLSPVRIMKKVSMEPSERLASLQALWDSQTVAEQGPCGGFSQMYACVCDWLGFSYREEVQWDVDTIYLTQDTRELNLQDFSHLDHRDLIPIIAALEYNQWFTKLSSKDLKLSTDVCEQILRVVSRSNRLEELVLENAGLRTDFAQKLASALAHNPNSGLHTINLAGNPLEDRGVSSLSIQFAKLPKGLKHLNLSKTSLSPKGVNSLSQSLSANPLTASTLVHLDLSGNVLRGDDLSHMYNFLAQPNAIVHLDLSNTECSLDMVCGALLRGCLQYLAVLNLSRTVFSHRKGKEVPPSFKQFFSSSLALMHINLSGTKLSPEPLKALLLGLACNHNLKGVSLDLSNCELRSGGAQVLEGCIAEIHNITSLDISDNGLESDLSTLIVWLSKNRSIQHLALGKNFNNMKSKNLTPVLDNLVQMIQDEESPLQSLSLADSKLKTEVTIIINALGSNTSLTKVDISGNGMGDMGAKMLAKALQINTKLRTVIWDKNNITAQGFQDIAVAMEKNYTLRFMPIPMYDASQALKTNPEKTEDALQKIENYLLRNHETRKEGHHHHHH | soluble |
| MGSDKIHHHHHHMKILVAMSGGVDSTVTAYKLKNLGHEVIGCYMKLHGKPNYHEENIKKVEKVANFLQIPYHILDLQEDFKNKVYMPFVDTYKEGKTPNPCALCNRFIKLGKLLEFAKSLGCEKLATGHYARLENNLIKTAVDESKDQSYFLASADKEALKYLIFPLGEMKKEDVKKFASTIEVLKSFATQKESSEICFVEDTYVQVLDQFMDTKIPGEVLDSSGKVVGKHEGYMHYTIGKRRGFEVRGAHEPHFVLKINPKQNQIIVGTKEELKISEFNLKNINLFIDAKELDCEVKIRYRSKSTPCKVEIYEDKSAKIILKDPVYGLASGQMAVFYDHDKVIASGFIE | not soluble |
